Data: the RNAGym collection of RNA variant scans (doi:10.7554/elife.80360)

B1: Hammerhead Ribozyme (parent)
chain: ACCGGAUGUGCUUUCCGGUCUGAUGAGUCCGUGAGGACGAAACAG

Variants of: B1
Assay: self-cleavage, relative activity (ratio to wild type); higher = more cleavage; co-transcriptional

First: U14C G39U
Second: U14G C16A
The self-cleavage of the first is lower: 0.294 for the first, 0.642 for the second.

Going from G5C G17A to U24A A34C, the self-cleavage rises from 0.313 to 0.88.

Compared with U14A C30G, G4A U28A is lower in self-cleavage: 0.624 for the first, 0.364 for the second.

Going from G5A C16G to G4A C15U, the self-cleavage falls from 0.931 to 0.532.

First: A41U A42G
Second: G18A U19C
The self-cleavage of the first is lower: 0.35 for the first, 0.402 for the second.

Compared with C3U, A26C C29U is lower in self-cleavage: 1.03 for the first, 0.448 for the second.

First: C2U U9G
Second: G4C G17A
The self-cleavage of the first is higher: 0.659 for the first, 0.298 for the second.

Compared with G36A A44C, U12A C15U is higher in self-cleavage: 0.31 for the first, 0.668 for the second.

Going from U12A C15A to U19G A34U, the self-cleavage falls from 0.979 to 0.289.

Compared with U12C G36U, G4A A26C is lower in self-cleavage: 0.498 for the first, 0.302 for the second.

Compared with U9G U21G, G17U A42U is lower in self-cleavage: 0.406 for the first, 0.369 for the second.

First: G31U G45A
Second: C3U U7G
The self-cleavage of the first is lower: 0.95 for the first, 1.25 for the second.

Compared with U12G U28C, A1G A26C is lower in self-cleavage: 1.02 for the first, 0.571 for the second.

First: G18C C38A
Second: A23U U32G
The self-cleavage of the first is lower: 0.327 for the first, 0.41 for the second.

Compared with G8U U19A, G27U U28C is lower in self-cleavage: 0.398 for the first, 0.38 for the second.

Compared with U12C G33U, U12C G33C is lower in self-cleavage: 1.37 for the first, 0.817 for the second.

First: G18A U32G
Second: G4A G5C
The self-cleavage of the first is higher: 0.744 for the first, 0.365 for the second.

First: G8U G33U
Second: G17A C38G
The self-cleavage of the first is higher: 1.07 for the first, 0.478 for the second.

First: C3G G45C
Second: U7C U14A
The self-cleavage of the first is lower: 0.35 for the first, 1.26 for the second.

Compared with G4U G17U, G8A A42C is higher in self-cleavage: 0.294 for the first, 0.373 for the second.

Going from G8A A42G to C3A A23G, the self-cleavage falls from 0.306 to 0.296.

First: A23C G25C
Second: C3G G36C
The self-cleavage of the first is higher: 0.37 for the first, 0.328 for the second.

Compared with G10U A40G, U28G G33A is higher in self-cleavage: 0.36 for the first, 1.02 for the second.

Going from U21C G25U to G33U A41U, the self-cleavage rises from 0.342 to 0.361.

G8A U13C and C16U G31U are the same in self-cleavage: 1.2 for the first, 1.2 for the second.

Compared with U14A G27U, C29G G35C is higher in self-cleavage: 0.405 for the first, 0.602 for the second.

First: G25C A40G
Second: C2U G8C
The self-cleavage of the first is lower: 0.447 for the first, 0.871 for the second.

Going from G4C C20A to G27U C43U, the self-cleavage rises from 0.244 to 0.366.

Going from A1C G36U to G25C G39C, the self-cleavage falls from 0.401 to 0.242.

Going from A1G A23U to U24G C43A, the self-cleavage falls from 0.424 to 0.402.

First: G4C U28C
Second: C20U G22U
The self-cleavage of the first is lower: 0.331 for the first, 0.341 for the second.

First: C15A G22U
Second: U32C G36C
The self-cleavage of the first is lower: 0.303 for the first, 0.553 for the second.

Compared with G31C A44G, U12A A37C is lower in self-cleavage: 1.53 for the first, 1.2 for the second.

First: U9C A37U
Second: G36U A37U
The self-cleavage of the first is lower: 0.666 for the first, 0.724 for the second.

First: C20G A40U
Second: G8C A42C
The self-cleavage of the first is lower: 0.355 for the first, 0.363 for the second.

First: C2A G45A
Second: A37U A41U
The self-cleavage of the first is higher: 0.393 for the first, 0.307 for the second.

Compared with C15G C43G, A1U G18C is higher in self-cleavage: 0.327 for the first, 0.39 for the second.

First: A23G C29G
Second: C20U A34U
The self-cleavage of the first is lower: 0.26 for the first, 0.356 for the second.

First: C20U A34C
Second: U21A C43G
The self-cleavage of the first is higher: 0.369 for the first, 0.32 for the second.

Compared with G8A U21A, U13G U21A is higher in self-cleavage: 0.475 for the first, 0.507 for the second.

Compared with U14A A23C, G5U A42G is higher in self-cleavage: 0.345 for the first, 0.352 for the second.

Going from G17A A40G to U7A C30A, the self-cleavage rises from 0.361 to 1.09.

First: U13C G45A
Second: U9C A42G
The self-cleavage of the first is higher: 0.878 for the first, 0.332 for the second.

Going from A23G U24C to A23G U28A, the self-cleavage falls from 0.488 to 0.329.

Going from A37C A42G to C11U U13C, the self-cleavage rises from 0.235 to 0.915.

Compared with G10C C38A, C2U A40G is lower in self-cleavage: 0.79 for the first, 0.284 for the second.

First: G4U G31U
Second: U12G A40C
The self-cleavage of the first is higher: 0.75 for the first, 0.366 for the second.

Going from U14G G27U to C11G U24G, the self-cleavage rises from 0.515 to 1.3.

Going from C2G U19A to G10U A23C, the self-cleavage rises from 0.294 to 0.47.

Going from U21G A37U to G8A C30A, the self-cleavage rises from 0.417 to 0.929.

Going from G5U A26U to G5U A26C, the self-cleavage falls from 0.449 to 0.357.

Compared with U7A U24C, C16U G33U is lower in self-cleavage: 0.976 for the first, 0.945 for the second.

Going from U32G A42U to U14C G33A, the self-cleavage rises from 0.375 to 0.754.

First: G22C U32G
Second: G8A C16G
The self-cleavage of the first is lower: 0.315 for the first, 1.03 for the second.

Compared with U13C A40U, A37U C43G is lower in self-cleavage: 0.277 for the first, 0.271 for the second.

First: U9A C11G
Second: U19G A37G
The self-cleavage of the first is higher: 1.57 for the first, 0.3 for the second.

Compared with U24A G33A, G4A G45C is lower in self-cleavage: 1 for the first, 0.393 for the second.

Compared with A34U G35U, G4A A41G is lower in self-cleavage: 0.584 for the first, 0.287 for the second.

First: G17A A37U
Second: A34G A37U
The self-cleavage of the first is higher: 0.528 for the first, 0.47 for the second.

First: G25A A41C
Second: G8U A23U
The self-cleavage of the first is lower: 0.3 for the first, 0.324 for the second.

U14C A37C and U28A G45A are the same in self-cleavage: 0.436 for the first, 0.436 for the second.

Going from U19A A34C to U19A A34G, the self-cleavage rises from 0.32 to 0.36.

Compared with C3A G25U, C2U U7G is higher in self-cleavage: 0.282 for the first, 1.72 for the second.

Compared with A1C C2U, A41G is lower in self-cleavage: 2.17 for the first, 0.345 for the second.

Compared with U24A G31U, G18U G22C is lower in self-cleavage: 0.927 for the first, 0.372 for the second.

Compared with C30U A44U, U7A U32G is higher in self-cleavage: 0.625 for the first, 1.07 for the second.

Going from C15U A44U to G18U G31C, the self-cleavage rises from 0.664 to 0.685.

Compared with C11G U13G, C11G U13A is higher in self-cleavage: 1.11 for the first, 1.21 for the second.

Compared with U7A U14C, U9A G33C is lower in self-cleavage: 1.17 for the first, 0.808 for the second.

Compared with A26C G39A, U7G C16G is higher in self-cleavage: 0.366 for the first, 0.765 for the second.

Going from G18A G25C to C2G A26G, the self-cleavage falls from 0.332 to 0.292.

First: U14A A40G
Second: G5U U19G
The self-cleavage of the first is lower: 0.296 for the first, 0.379 for the second.

First: G4C G45C
Second: C29U A34G
The self-cleavage of the first is lower: 0.4 for the first, 0.657 for the second.

Compared with U7A G39A, C11G G27U is higher in self-cleavage: 0.27 for the first, 0.527 for the second.

First: U13G G31U
Second: U21A C38A
The self-cleavage of the first is higher: 0.82 for the first, 0.363 for the second.

Going from G22A C30G to U24C A37C, the self-cleavage rises from 0.343 to 1.02.

Compared with C3U C30U, A37U G39C is lower in self-cleavage: 0.929 for the first, 0.326 for the second.

Compared with G18U G25A, C2G U21G is lower in self-cleavage: 0.369 for the first, 0.331 for the second.

Compared with G4C C43A, C20G A37C is higher in self-cleavage: 0.285 for the first, 0.298 for the second.

Compared with G35U G45C, G4C A40C is lower in self-cleavage: 0.466 for the first, 0.352 for the second.

Compared with G39A, C16U A37C is higher in self-cleavage: 0.347 for the first, 0.843 for the second.

First: G31A U32A
Second: C11A G35A
The self-cleavage of the first is higher: 1.06 for the first, 0.981 for the second.

Compared with U14G U28G, G36A C43A is lower in self-cleavage: 0.585 for the first, 0.383 for the second.

G22C A41U gave a self-cleavage of 0.416.
